# Patent publication US12280121B2, “Immunoconjugates and methods” (Immunome, Inc., priority 2021, dated 2025)
# Like-named read-outs stand apart in the source and are kept apart here.
# Test system: Jeko-1
# Test: CTG assay of ROR-1 ADCs and toxins, JeKo-1
# Format: cell-based
# Method: FIG. 33 illustrates a CTG assay wherein ROR+ (JeKo-1) cells were incubated with the ADCs generated as described in FIG. 32 in serial three-fold dilutions and cell viability was assessed after 72 hours.
# The CTG assay is a method of determining the number of viable cells in culture based on quantitation of the ATP present, an indicator of metabolically active cells. The cell assay requires the addition of a single reagent, Cell Titer Glo, in which cells are lysed and generation of a luminescent signal is produced. The luminescent signal is proportional to the amount of ATP present. The amount of ATP is directly proportional to the number of cells present in culture. For our assay, cells were ensured to be in log-phase for either Jeko-1 or MDA-MB-468. Cells were transferred to 96 wells and treated with compounds in three-fold serial dilution starting from 1 μM to 0.0000508 μM (10 points dilution), for 72 h. Cell viability was analyzed with CellTiter-Glo® Luminescent Cell Viability Assay (Promega) following manufactures' instruction. Percentage of viable cells in each compound concentration was determined by normalizing with the luminescence of vehicle control and plotted into percentage of viability versus dose response curve by nonlinear fit in GraphPad Prism software.
# Novel ROR-1 antibody-drug conjugates (ADCs) were evaluated by CTG Assay in a similar manner as was described in Example 24 for screening of payloads. […] Briefly ROR+(JeKo-1/MDA-MB-468) or ROR− (Ramos) cells were transferred to 96 wells and treated with the ADCs in three-fold serial dilution starting from […] (10 points dilution), for 72 h. Cell viability was analyzed with CellTiter-Glo® Luminescent Cell Viability Assay (Promega) following the manufactures' instructions (FIG. 33). The percentage of viable cells at each ADC concentration was determined by normalizing with the luminescence of vehicle control and plotted into percentage of viability versus dose response curve by nonlinear fit in GraphPad Prism software.
molecule,measurement,setting,value
"VLS-101 (conjugate, chains of the INN, looked up, vedotin (MMAE) payload) VH: QVQLQESGPGLVKPSQTLSLTCTVSGYAFTAYNIHWVRQAPGQGLEWMGSFDPYDGGSSYNQKFKDRLTISKDTSKNQVVLTMTNMDPVDTATYYCARGWYYFDYWGHGTLVTVSS VL: DIVMTQTPLSLPVTPGEPASISCRASKSISKYLAWYQQKPGQAPRLLIYSGSTLQSGIPPRFSGSGYGTDFTLTINNIESEDAAYYFCQQHDESPYTFGEGTKVEIK",IC50,"Jeko-1, average of run 1 and run 2, read-out: Avg. IC50",60.1 nM
same,IC50,"Jeko-1 P3, run 1, 72 h, read-out: Jeko-1 P3 (RUN1) IC50",63.4 nM
same,IC50,"Jeko-1 P4, run 2, 72 h, read-out: Jeko-1 P4 (RUN2) IC50",56.8 nM
